The values that follow come from patent EP0363874A1, “Enzymes bound to a polymer matrix in water-soluble form” (Etablissement TEXCONTOR, priority 1988, dated 1990).

Series [1] can be described thus: Water solubility of the supported enzyme. It is filed as physicochemical. As to conditions: for WATER SOLUBILITY: papain grafted onto DAS preparations of variable aldehyde titre. The procedure: (§1) The proteolytic activity of the product of Example 1 was determined by the American Pharmacopeia method (USP XXI). Various DAS preparations of variable aldehyde titre were used, obtained by varying the reaction times, in order to establish a comparison between the aldehyde titre, the solubility of the enzymatic preparation and the activity of this latter.

Series [2] is described as follows: Stability in solid state (retention of enzyme activity). Type of series: physicochemical.
The nature of series [3]: Stability in aqueous solution (retention of enzyme activity). Type of series: physicochemical.
A short description of series [4]: Release of enzyme from the polymer matrix. Type of series: physicochemical. As to conditions: aqueous solution.
The nature of series [5]: Proteolytic activity of papain grafted onto DAS, American Pharmacopeia method (USP XXI). Type of series: biochemical. As to conditions: papain grafted onto DAS preparations of variable aldehyde titre. The method, then:
as §1

B1: DAS.2: papain grafted onto starch polyaldehyde (DAS) of aldehyde titre 5.8 x 10⁻³ meq CHO/mg and reduced with sodium borohydride (conjugate, UniProt P00784 134-345, looked up)
Papain: IPEYVDWRQKGAVTPVKNQGSCGSCWAFSAVVTIEGIIKIRTGNLNEYSEQELLDCDRRSYGCNGGYPWSALQLVAQYGIHYRNTYPYEGVQRYCRSREKGPYAAKTDGVRQVQPYNEGALLYSIANQPVSVVLEAAGKDFQLYRGGIFVGPCGNKVDHAVAAVGYGPNYILIKNSWGTGWGENGYIRIKRGTGNSYGVCGLYTSSFYPVKN
modifications: grafted onto starch polyaldehyde, borohydride-reduced
notes: papain grafted onto starch polyaldehyde (DAS) of aldehyde titre 5.8 x 10⁻³ meq CHO/mg and reduced with sodium borohydride
B1: the water-solubility entry in series [1] (lyophilized product) is given as “good water-solubility”. The “WATER SOLUBILITY” value in series [1] is “YES”. The “time for which the activity is maintained” value in series [2] was “at least two years”; in series [3], “at least six months”. In addition, the “time without release of enzyme” value in series [4] was “at least six months”. Moreover, the “µg OF ACTIVE PAPAIN per 100 mg POLYMER” value in series [5] stood at 900 µg per 100 mg POLYMER.

B2: DAS.4: papain grafted onto starch polyaldehyde (DAS) of aldehyde titre 4.68 x 10⁻³ meq CHO/mg and reduced with sodium borohydride (conjugate, UniProt P00784 134-345, looked up)
Papain: IPEYVDWRQKGAVTPVKNQGSCGSCWAFSAVVTIEGIIKIRTGNLNEYSEQELLDCDRRSYGCNGGYPWSALQLVAQYGIHYRNTYPYEGVQRYCRSREKGPYAAKTDGVRQVQPYNEGALLYSIANQPVSVVLEAAGKDFQLYRGGIFVGPCGNKVDHAVAAVGYGPNYILIKNSWGTGWGENGYIRIKRGTGNSYGVCGLYTSSFYPVKN
modifications: grafted onto starch polyaldehyde, borohydride-reduced
notes: papain grafted onto starch polyaldehyde (DAS) of aldehyde titre 4.68 x 10⁻³ meq CHO/mg and reduced with sodium borohydride
On to B2, for which the “WATER SOLUBILITY” value in series [1] is “YES”. Further, the “µg OF ACTIVE PAPAIN per 100 mg POLYMER” value in series [5] is 500 µg per 100 mg POLYMER.

B3: DAS.1: papain grafted onto starch polyaldehyde (DAS) of aldehyde titre 3.16 x 10⁻³ meq CHO/mg and reduced with sodium borohydride (conjugate, UniProt P00784 134-345, looked up)
Papain: IPEYVDWRQKGAVTPVKNQGSCGSCWAFSAVVTIEGIIKIRTGNLNEYSEQELLDCDRRSYGCNGGYPWSALQLVAQYGIHYRNTYPYEGVQRYCRSREKGPYAAKTDGVRQVQPYNEGALLYSIANQPVSVVLEAAGKDFQLYRGGIFVGPCGNKVDHAVAAVGYGPNYILIKNSWGTGWGENGYIRIKRGTGNSYGVCGLYTSSFYPVKN
modifications: grafted onto starch polyaldehyde, borohydride-reduced
notes: papain grafted onto starch polyaldehyde (DAS) of aldehyde titre 3.16 x 10⁻³ meq CHO/mg and reduced with sodium borohydride
As to B3, the “WATER SOLUBILITY” value in series [1] is listed as “MICELLE”. The “µg OF ACTIVE PAPAIN per 100 mg POLYMER” value in series [5] was 800 µg per 100 mg POLYMER.

B4: DAS.3: papain grafted onto starch polyaldehyde (DAS) of aldehyde titre 8 x 10⁻³ meq CHO/mg and reduced with sodium borohydride (conjugate, UniProt P00784 134-345, looked up)
Papain: IPEYVDWRQKGAVTPVKNQGSCGSCWAFSAVVTIEGIIKIRTGNLNEYSEQELLDCDRRSYGCNGGYPWSALQLVAQYGIHYRNTYPYEGVQRYCRSREKGPYAAKTDGVRQVQPYNEGALLYSIANQPVSVVLEAAGKDFQLYRGGIFVGPCGNKVDHAVAAVGYGPNYILIKNSWGTGWGENGYIRIKRGTGNSYGVCGLYTSSFYPVKN
modifications: grafted onto starch polyaldehyde, borohydride-reduced
notes: papain grafted onto starch polyaldehyde (DAS) of aldehyde titre 8 x 10⁻³ meq CHO/mg and reduced with sodium borohydride
For the molecule B4, the “WATER SOLUBILITY” value in series [1] was “YES”. In addition, the “µg OF ACTIVE PAPAIN per 100 mg POLYMER” value in series [5] stood at 200 µg per 100 mg POLYMER.
